Source: patent US20090104204A1 (CRUCELL HOLLAND B V, published 2009)

What was measured:
bovine serum albumin [1] = biological target: T1, bovine serum albumin (bovine, UniProt P02769 25-607); assay: ELISA, phage antibody on coated 1% BSA, anti-M13 peroxidase, OD 492 nm
T1 construct: Negative control antigen in the non-specific reactivity ELISA; also called BSA; BSA (1%)
Procedure: (§1) To test for non-specific reactivity against non-bacterial antigens an ELISA assay was used. The complex antigens 5% FBS, 2% ELK and 1% BSA were coated overnight to Maxisorp™ ELISA plates. Selected single-chain phage antibodies were incubated for 15 minutes in an equal volume of PBS containing 1% BSA to obtain blocked phage antibodies. The plates were emptied, and the blocked single-chain phage antibodies were added to the wells. Incubation was allowed to proceed for two hours at room temperature, the plates were washed in PBS containing 0.1% v/v Tween-20 and bound phage antibodies were detected by means of OD 492 nm measurement using an anti-M13 antibody conjugated to peroxidase. As a control, the procedure was performed simultaneously without single-chain phage antibody, with a negative control single-chain phage antibody directed against West Nile virus envelope protein (SC04-374).

bovine serum albumin [2] = biological target: T1, bovine serum albumin; assay: ELISA, phage antibody on coated 1% BSA, anti-M13 peroxidase
Procedure: as §1

T1 sequence (P02769 25-607 limits assumed): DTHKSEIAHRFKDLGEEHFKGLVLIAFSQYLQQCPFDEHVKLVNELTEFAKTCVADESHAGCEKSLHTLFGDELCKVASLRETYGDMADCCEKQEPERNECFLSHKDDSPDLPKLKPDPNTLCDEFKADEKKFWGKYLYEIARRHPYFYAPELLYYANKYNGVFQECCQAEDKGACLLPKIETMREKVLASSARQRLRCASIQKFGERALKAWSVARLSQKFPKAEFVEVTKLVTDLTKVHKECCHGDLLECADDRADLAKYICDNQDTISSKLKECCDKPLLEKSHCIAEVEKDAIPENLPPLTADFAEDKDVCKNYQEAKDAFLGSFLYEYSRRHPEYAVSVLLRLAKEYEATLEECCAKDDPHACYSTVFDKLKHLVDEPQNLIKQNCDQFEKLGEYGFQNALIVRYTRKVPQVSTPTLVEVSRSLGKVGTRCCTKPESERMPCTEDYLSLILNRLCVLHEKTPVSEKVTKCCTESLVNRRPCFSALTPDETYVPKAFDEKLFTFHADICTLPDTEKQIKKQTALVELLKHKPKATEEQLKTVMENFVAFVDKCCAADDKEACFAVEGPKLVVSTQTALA

Binder | binding result (bovine serum albumin [1]) | ELISA (OD492 nm) (bovine serum albumin [2])
single-chain phage antibody SC05-133 (scFv, also called scFv SC05-133) scFv: EVQLVETGGGLVKPGGSLRLSCSASRFSFRDYYMTWIRQAPGKGPEWVSHISGSGSTIYYADSVRGRFTISRDNAKSSLYLQMDSLQADDTAVYYCARGGRATSYYWVHWGPGTLVTVSSGTGGSGGTGSGTGGSTEIVLTQSPATLSLSPGERATLSCRASQSVSGYLGWYQQKPGQAPRLLIYGASSRATGIPDRFSGSGSGTDFTLTISRLEPEDFAVYYCQQYGSSPLTFGGGTKLEIKR | no binding | 0.04 OD492 nm
single-chain phage antibody SC02-430 (scFv, Selected from the semi-synthetic library JK1994 on S. aureus strain Cowan; also called scFv SC02-430) scFv: QVQLQESGPGLVKPSQTLSLTCTVSGGSISSGGYYWSWIRQPPGKGLEWIGYIYYSGSTYYNSSLKSRVTISVDTSKNQFSLKLSSVTAADTAVYYCAKTVMNSFFDWGQGTLVTVSSGGGGSGGGGSGGGGSEIELTQPPSVSGSPGQSITISCTGTSSDVGSYNLVSWYQQHPGKAPKLMIYEVSKRPSGVSNRFSGSKSGNTASLTISGLQAEDEADYYCCSYAGSSWVFGGGTKLTVL | no binding | 0.04 OD492 nm
